Data published in patent US20160319032A1 (MEDLMMUNE, published 2016).
Read-outs that look alike come from different tables or passages of the source. One block for each binder: values may come before it.

Columns and labels:
[1] = target: human αV on parental A375M cells (αVβ3 and αVβ5 integrins) (human, UniProt P06756 31-1048); test: cell-based or functional assay
[2] = target: T1, α4β1 integrin on J6.77 cells (UniProt P13612 34-1032; P05556 21-798); test: cell-based or functional assay
[3] = target: T2, α5β1 integrin on K562 cells (UniProt P08648 42-1049; P05556 21-798); test: cell-based or functional assay
T2 sequence (P08648 42-1049, chain 1 of 2): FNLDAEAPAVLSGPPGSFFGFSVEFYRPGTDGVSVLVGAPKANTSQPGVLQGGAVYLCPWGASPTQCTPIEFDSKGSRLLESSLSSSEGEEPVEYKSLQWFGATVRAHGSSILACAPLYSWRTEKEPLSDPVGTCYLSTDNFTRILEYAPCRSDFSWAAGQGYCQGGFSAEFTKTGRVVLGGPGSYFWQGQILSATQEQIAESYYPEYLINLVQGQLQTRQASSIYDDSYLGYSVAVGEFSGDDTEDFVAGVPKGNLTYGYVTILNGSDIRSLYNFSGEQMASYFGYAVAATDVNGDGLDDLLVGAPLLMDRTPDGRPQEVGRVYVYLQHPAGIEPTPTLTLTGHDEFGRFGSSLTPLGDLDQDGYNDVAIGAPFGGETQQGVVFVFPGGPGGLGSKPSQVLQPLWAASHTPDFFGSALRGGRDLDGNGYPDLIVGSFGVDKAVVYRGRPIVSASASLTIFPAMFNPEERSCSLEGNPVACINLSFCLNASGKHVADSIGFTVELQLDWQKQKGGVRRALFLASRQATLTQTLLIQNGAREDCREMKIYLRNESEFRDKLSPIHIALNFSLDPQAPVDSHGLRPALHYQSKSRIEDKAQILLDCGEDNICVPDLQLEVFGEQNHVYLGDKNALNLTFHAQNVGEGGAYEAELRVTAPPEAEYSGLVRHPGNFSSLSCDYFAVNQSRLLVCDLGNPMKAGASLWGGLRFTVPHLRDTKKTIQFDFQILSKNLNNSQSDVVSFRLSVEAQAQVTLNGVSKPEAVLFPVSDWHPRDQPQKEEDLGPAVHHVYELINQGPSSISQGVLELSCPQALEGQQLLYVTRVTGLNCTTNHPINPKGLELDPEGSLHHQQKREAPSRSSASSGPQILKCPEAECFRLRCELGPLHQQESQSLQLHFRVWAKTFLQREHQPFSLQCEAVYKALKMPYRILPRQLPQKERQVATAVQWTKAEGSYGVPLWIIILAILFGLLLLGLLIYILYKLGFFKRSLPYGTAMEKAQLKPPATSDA
T2 sequence (P05556 21-798, chain 2 of 2): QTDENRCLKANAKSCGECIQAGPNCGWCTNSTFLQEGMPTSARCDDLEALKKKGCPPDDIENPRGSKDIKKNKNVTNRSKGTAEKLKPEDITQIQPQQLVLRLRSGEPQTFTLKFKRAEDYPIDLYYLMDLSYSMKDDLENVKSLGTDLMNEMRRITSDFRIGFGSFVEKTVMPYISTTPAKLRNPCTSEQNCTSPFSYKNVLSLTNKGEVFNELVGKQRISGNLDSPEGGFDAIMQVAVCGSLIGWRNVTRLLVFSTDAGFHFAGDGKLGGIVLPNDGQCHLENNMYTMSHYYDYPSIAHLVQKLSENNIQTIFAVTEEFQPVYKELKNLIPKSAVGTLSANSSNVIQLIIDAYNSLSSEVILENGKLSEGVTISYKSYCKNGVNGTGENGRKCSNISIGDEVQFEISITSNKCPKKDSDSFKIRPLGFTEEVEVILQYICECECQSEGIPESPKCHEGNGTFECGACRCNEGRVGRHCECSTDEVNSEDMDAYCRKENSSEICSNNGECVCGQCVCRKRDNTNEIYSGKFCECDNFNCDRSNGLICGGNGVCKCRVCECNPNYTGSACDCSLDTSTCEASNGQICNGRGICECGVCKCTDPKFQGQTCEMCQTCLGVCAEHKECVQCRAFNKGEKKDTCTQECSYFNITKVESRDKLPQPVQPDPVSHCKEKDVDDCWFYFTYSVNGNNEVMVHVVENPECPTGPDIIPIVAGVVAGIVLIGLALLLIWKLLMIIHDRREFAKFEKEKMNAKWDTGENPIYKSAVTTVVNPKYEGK

[4] = target: T3, cynomolgus αVβ6 on cells (cynomolgus); test: FACS, supernatant, HEK-293 transfected with cynomolgus αV and β6
T3 construct: whole, on cells; also called macaque αVβ6; Mac AVB6

[5] = target: T4, human αVβ6 integrin on cells (human, UniProt P06756 31-1048; P18564 22-788); test: cell-based or functional assay
T4 sequence (P06756 31-1048, chain 1 of 2): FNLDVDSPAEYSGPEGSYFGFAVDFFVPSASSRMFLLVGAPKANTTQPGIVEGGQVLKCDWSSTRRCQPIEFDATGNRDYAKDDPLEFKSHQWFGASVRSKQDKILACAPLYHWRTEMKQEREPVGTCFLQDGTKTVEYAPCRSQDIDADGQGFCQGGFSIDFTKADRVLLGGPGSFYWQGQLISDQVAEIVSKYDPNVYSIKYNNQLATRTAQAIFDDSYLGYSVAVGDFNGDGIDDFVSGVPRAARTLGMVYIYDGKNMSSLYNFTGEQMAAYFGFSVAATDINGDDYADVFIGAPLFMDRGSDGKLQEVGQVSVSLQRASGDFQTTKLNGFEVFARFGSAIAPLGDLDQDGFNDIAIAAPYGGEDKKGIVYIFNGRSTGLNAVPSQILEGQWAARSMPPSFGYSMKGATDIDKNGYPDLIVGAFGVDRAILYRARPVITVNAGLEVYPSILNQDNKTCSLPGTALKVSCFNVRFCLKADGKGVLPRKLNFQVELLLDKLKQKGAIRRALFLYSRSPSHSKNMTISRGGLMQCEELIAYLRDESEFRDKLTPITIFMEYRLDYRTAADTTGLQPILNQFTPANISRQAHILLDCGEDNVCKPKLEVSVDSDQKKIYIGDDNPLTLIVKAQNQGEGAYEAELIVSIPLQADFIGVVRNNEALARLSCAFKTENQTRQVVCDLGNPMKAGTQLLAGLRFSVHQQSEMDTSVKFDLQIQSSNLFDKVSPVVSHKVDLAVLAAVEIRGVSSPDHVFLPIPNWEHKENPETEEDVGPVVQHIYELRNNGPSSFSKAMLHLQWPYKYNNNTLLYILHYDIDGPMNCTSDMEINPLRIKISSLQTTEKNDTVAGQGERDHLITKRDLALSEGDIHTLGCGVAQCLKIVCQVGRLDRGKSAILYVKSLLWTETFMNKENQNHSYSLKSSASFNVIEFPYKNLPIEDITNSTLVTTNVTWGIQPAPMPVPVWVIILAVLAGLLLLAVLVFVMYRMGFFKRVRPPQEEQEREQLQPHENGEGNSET
T4 sequence (P18564 22-788, chain 2 of 2): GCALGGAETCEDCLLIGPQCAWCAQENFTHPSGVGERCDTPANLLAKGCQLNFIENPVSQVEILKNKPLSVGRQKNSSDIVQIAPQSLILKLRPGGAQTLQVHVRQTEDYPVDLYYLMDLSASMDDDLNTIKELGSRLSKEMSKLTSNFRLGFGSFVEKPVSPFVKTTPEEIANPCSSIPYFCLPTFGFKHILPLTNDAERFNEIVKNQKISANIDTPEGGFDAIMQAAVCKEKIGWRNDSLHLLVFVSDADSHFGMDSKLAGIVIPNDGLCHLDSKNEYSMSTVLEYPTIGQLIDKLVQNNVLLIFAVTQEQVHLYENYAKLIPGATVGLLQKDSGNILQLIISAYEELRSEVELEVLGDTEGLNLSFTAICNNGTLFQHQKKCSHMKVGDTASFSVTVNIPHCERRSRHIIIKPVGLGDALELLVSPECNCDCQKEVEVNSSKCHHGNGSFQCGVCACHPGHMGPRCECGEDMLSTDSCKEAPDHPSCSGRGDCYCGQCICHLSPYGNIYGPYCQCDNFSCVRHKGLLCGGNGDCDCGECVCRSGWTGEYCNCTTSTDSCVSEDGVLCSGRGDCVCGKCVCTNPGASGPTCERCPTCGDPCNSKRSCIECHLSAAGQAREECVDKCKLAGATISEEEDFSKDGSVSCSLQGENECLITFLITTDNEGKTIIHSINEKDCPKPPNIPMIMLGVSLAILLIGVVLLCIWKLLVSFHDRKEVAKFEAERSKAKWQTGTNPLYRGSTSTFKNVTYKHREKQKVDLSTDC

[6] = target: T4, human αVβ6 integrin on cells; test: cell-based or functional assay; remark: listed apart in the source
[7] = target: T4, human αVβ6 integrin on cells; test: cell-based or functional assay; remark: listed apart in the source
[8] = target: T5, mouse αV on transfected HEK-293 cells (mouse, UniProt P43406 31-1044); test: FACS, purified mAb, transfected HEK-293 (parental: 49)
T5 construct: whole, on cells; Transfected alone into human HEK-293 cells; also called Mouse alpha V
T5 sequence (P43406 31-1044): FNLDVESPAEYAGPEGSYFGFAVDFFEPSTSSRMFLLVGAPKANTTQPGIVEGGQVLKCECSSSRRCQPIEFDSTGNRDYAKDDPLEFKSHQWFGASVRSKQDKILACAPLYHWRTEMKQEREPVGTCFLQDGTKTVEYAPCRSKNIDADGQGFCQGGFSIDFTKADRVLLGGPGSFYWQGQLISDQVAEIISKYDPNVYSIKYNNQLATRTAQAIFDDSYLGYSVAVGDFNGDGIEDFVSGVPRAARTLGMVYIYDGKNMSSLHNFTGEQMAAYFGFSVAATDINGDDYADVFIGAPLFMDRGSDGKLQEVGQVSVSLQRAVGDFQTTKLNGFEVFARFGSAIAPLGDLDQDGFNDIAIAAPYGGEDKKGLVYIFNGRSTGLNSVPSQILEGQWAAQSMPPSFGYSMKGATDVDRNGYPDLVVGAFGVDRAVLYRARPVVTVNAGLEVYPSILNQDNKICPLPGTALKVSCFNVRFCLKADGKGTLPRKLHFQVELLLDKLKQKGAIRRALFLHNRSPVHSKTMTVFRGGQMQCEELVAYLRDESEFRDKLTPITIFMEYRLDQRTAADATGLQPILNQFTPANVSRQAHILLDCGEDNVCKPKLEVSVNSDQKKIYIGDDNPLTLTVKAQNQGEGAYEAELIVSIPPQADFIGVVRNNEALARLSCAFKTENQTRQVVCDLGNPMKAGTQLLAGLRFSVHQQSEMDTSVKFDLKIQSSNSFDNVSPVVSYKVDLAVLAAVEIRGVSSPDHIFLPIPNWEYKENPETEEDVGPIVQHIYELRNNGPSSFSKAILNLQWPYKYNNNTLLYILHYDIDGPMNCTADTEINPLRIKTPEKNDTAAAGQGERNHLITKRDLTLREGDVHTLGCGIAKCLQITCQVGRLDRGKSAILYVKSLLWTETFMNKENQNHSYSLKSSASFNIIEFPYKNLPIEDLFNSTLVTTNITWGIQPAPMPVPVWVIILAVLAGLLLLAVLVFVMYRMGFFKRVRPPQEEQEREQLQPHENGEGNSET

[9] = target: T4, human αVβ6 integrin on cells; test: FMAT, supernatant, HEK 293 cells stably overexpressing αVβ6
[10] = target: T1, α4β1 integrin on J6.77 cells; test: cell-based or functional assay; remark: listed apart in the source
[11] = target: T2, α5β1 integrin on K562 cells; test: cell-based or functional assay; remark: listed apart in the source
[12] = target: T3, cynomolgus αVβ6 on cells; test: FACS, purified mAb, transfected HEK-293 (parental: 74)
[13] = target: T5, mouse αV on transfected HEK-293 cells; test: as above
[14] = target: T6, cynomolgus αV on transfected HEK-293 cells (cynomolgus); test: as above
T6 construct: whole, on cells; Transfected alone into human HEK-293 cells; also called Cynomolgus alphaV

Sequence of human αV on parental A375M cells (αVβ3 and αVβ5 integrins) (P06756 31-1048 A375M, form in doubt): as the sequence (P06756 31-1048, chain 1 of 2) above, with A345M counted along it

- Percent Inhibition of A375M adhesion to osteopontin peptide, 5 ug/ml [1]: 3%
- Percent Inhibition of J6.77 adhesion to CS-1 peptide, 5 ug/ml [2]: -15%
- Percent Inhibition of K562 adhesion to FN9-10, 5 ug/ml [3]: -12%
- % Cells Shifted [4]: 32%
- GeoMean [4]: 35.2
B1: sc 133 (antibody, V domains shown)
VH: QVQLVQSGAEVKKPGASVKVSCKASGYTFTGYYMHWVRQAPGQGLEWMGWINPKSGDTNYAQKFQGRVTLTRDTSTSTAYMELSRLRSDDTAVYYCARRLDVWGQGTTVTVSS
VL: QSVLTQPPSVSAAPGQKVTISCSGSSSNIGNNYVSWYQQLPGTAPKLLIYDNNKRPSGIPDRFSGSKSGTSATLGITGLQTGDEADYYCGTWNSSLSAGYVFGTGTKVTV
notes: lambda light chain; also called mAb sc 133

- Assay 1 % Inhibition of adhesion [5]: 98%
- Assay 2 % Inhibition of adhesion [5]: 102%
- Average % Inhibition of adhesion [5]: 100%
- Estimated IC50, adhesion assay, n = 1 [6]: 29 ng/mL
- Estimated IC50, adhesion assay, n = 2 [6]: 25 ng/mL
- Estimated IC50, adhesion assay, n = 3 [6]: 33 ng/mL
- Percent Inhibition of A375M adhesion to osteopontin peptide, 5 ug/ml [1]: 9%
- Percent Inhibition of J6.77 adhesion to CS-1 peptide, 5 ug/ml [2]: -7%
- Percent Inhibition of K562 adhesion to FN9-10, 5 ug/ml [3]: 2%
- Percent Internalization, 1 ug/mL [7]: 26%
- Percent Internalization, 10 ug/mL [7]: 28%
- percent of cells shifted [8]: 45%
- FMAT FL1XCount [9]: 218000
B2: sc 298 (antibody, V domains shown)
VH: QVQLVESGGGVVQPGRSLRLSCAASGFTFSSYGMHWVRQAPGKGLEWVAVIWYGGSNKYYADSVKGRFTISRDNSKNTLYLQMNSLRAEDTAVYYCARDLAARRGDYYYYGMDVWGQGTTVTVSS
VL: SSELTQDPVVSVALGQTVRITCQGDSLRSYYLSWYQQKPGQAPVLVIYGKNNRPSGIPDRFSGSNSGNTASLTITGAQAEDEADYYCNSRDSSGNHLFGGGTKLTVL
notes: lambda light chain

- Percent Inhibition of A375M adhesion to osteopontin peptide, 5 ug/ml [1]: 3%
- Percent Inhibition of J6.77 adhesion to CS-1 peptide, 5 ug/ml [2]: -8%
- Percent Inhibition of K562 adhesion to FN9-10, 5 ug/ml [3]: -4%
- Percent Inhibition of J6.77 adhesion to CS-1 peptide, 5 ug/ml [10]: -30%
- % Inhibition of K562 adhesion to fibronectin [11]: 3%
- percent of cells shifted [12]: 54%
- percent of cells shifted [13]: 71%
- percent of cells shifted [14]: 70%
- % Cells Shifted [4]: 55%
- GeoMean [4]: 66.4
B3: sc 264 (antibody, V domains shown)
VH: QVQLQESGPGLVKPSQTLSLTCTVSGGSISSGGYYWSWIRQHPGKGLEWIGYIYYSGRTYNNPSLKSRVTISVDTSKNQFSLKLSSVTAADTAVYYCARVATGRGDYHFYAMDVWGQGTTVTVSS
VL: SYELTQPSSVSVSPGQTARITCSGDVLAKKSARWFHQKPGQAPVLVIYKDSERPSGIPERFSGSSSGTTVTLTISGAQVEDEAAYYCYSAADNNLVFGGGTKLTVL
notes: lambda light chain
